Experimental data reported in PMC2518858.

Tests used:
[1] = target: MC179, the CD36-binding portion (M2 subdomain) of the CIDR1α domain of PfEMP1 from the Malayan Camp (MC) strain of P. falciparum (Plasmodium falciparum (Malayan Camp strain)); experiment: SEC; refolded MC179 on a Superdex 75 size exclusion column; species with the mobility of dimers separated from monomers
[2] = target: MC179, the CD36-binding portion (M2 subdomain) of the CIDR1α domain of PfEMP1 from the Malayan Camp (MC) strain of P. falciparum (Plasmodium falciparum (Malayan Camp strain)); experiment: cross-linking; chemical cross-linking of MC179 in solution (data not shown)

MC179, the CD36-binding portion (M2 subdomain) of the CIDR1α domain of PfEMP1 from the Malayan Camp (MC) strain of P. falciparum (domain or fragment)
stoichiometry N [1]: 2 | stoichiometry N [2]: 2
